Positions count from the first letter of the chain named. In names and notes the source's numbering stands.
B1: recombinant A2 domain of human von Willebrand factor (WT A2 protein) (other)
chain: GLLGVSTLGPKRNSMVLDVAFVLEGSDKIGEADFNRSKEFMEEVIQRMDVGQDSIHVTVLQYSYMVTVEYPFSEAQSKGDILQRVREIRYQGGNRTNTGLALRYLSDHSFLVSQGDREQAPNLVYMVTGNPASDEIKRLPGDIQVVPIGVGPNANVQELERIGWPNAPILIQDFETLPREAPDLVLQR
modifications: conjugated to Alexa Fluor 488 in the confocal microscopy experiments only
notes: not shown: histidine tag (vector pQE-9/VWF-A2)
B2: recombinant A2 (E1567A) mutant of the A2 domain of human von Willebrand factor (other)
chain: B1 chain with E87A
notes: also called A2 mutant; A2 mutant protein; not shown: Histidine tag from the pQE-9 vector

Tests used:
[1] = target: recombinant SARS-CoV-2 spike protein (S) (SARS-CoV-2, UniProt P0DTC2 16-1213)
[2] = target: recombinant human vimentin (human, UniProt P08670 2-466, limits assumed); experiment: ELISA: increasing concentrations of A2 variant on recombinant human vimentin, bound A2 detected with anti-A2 antibody and a secondary HRP conjugate
recombinant human vimentin, sequence (P08670 2-466 limits assumed): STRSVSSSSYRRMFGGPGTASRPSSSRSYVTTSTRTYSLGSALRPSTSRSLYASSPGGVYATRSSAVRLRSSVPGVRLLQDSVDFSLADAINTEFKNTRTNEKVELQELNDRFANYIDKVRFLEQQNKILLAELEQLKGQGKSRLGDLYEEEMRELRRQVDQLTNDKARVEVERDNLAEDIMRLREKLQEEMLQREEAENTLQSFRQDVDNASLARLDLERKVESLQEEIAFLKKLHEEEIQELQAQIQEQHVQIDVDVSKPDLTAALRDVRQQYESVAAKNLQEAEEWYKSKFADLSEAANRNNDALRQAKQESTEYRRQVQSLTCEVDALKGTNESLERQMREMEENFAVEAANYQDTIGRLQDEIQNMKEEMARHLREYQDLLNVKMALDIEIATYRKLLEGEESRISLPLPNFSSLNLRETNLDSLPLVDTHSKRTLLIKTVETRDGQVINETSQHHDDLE

| Binder | binding result [1] | EC50 (read off the curve) [2] |
| --- | --- | --- |
| B1 | no binding | ~40 nM |
| B2 | – | ~70 nM |

Source: patent publication US20220193204A1 (BAYLOR COLLEGE OF MEDICINE, published 2022)
